For one molecule, Kd results are on record in US20250243261A1 (CZ BIOHUB SF, published 2025).

The target in test [1] is T1, SARS-CoV-2 Omicron-variant receptor binding domain (RBD) (SARS-CoV-2 Omicron variant).
T1 construct: domain: RBD
The test can be described thus: BLI, IgG. (In general: In BLI a coated tip is dipped into the sample, and binding shifts an interference pattern.)

The target in test [2] is SARS-CoV-2 Beta-variant Spike with two stabilizing proline substitutions (S-2P) (SARS-CoV-2 Beta variant). The test can be described thus: BLI, IgG.

B1: C143 WT IgG (antibody, V domains shown)
VH: EVQLVESGGGLVQPGGSLRLSCAASGFSVSTKYMTWVRQAPGKGLEWVSVLYSGGSDYYADSVKGRFTISRDNSKNALYLQMNSLRVEDTGVYYCARDSSEVRDHPGHPGRSVGAFDIWGQGTMVTVSS
VL: QSALTQPASVSGSPGQSITISCTGTSNDVGSYTLVSWYQQYPGKAPKLLIFEGTKRSSGISNRFSGSKSGNTASLTISGLQGEDEADYYCCSYAGASTFVFGGGTKLTVL
The Kd is the concentration at which binding is half-saturated. With B1, the Kd amounted to 600 µM in test [1] and 0.45 µM in test [2].
